Measurements published in patent US20120328616A1 (Amgen, published 2012).

B1: 66G2.1 (antibody, V domains shown)
VH: QVQLVESGGGVVQPGRSLRLSCAASGFTFSSYGMHWVRQAPGKGLEWVAGISYDGSNKNYADSVKGRITISRDNPKNTLYLQMNSLRAEDTAVYYCATTVTKEDYYYYGMDVWGQGTTVTVSS
VL: DIQMTQSPSSLSASVGDRVTITCRASQGIRNDLGWYQQKPGKAPKRLIYAASNLQSGVPSRFSGSGSGTKFTLTINSLQPEDFATYYCLQLNGYPLTFGGGTKVEIKR
B2: 49G3.3 (antibody, V domains shown)
VH: QVTLKESGPVLVKPTETLTLTCTVSGFSLSNPRMGVSWIRQPPGKALEWLTHIFSNDEKSYSTSLKSRLTISKDTSKSQVVLSMTNMDPVDTATYYCVRVDTLNYHYYGMDVWGQGTTVTVSS
VL: DIQMTQSPSSLSASIGDRVTITCQASQGISNYLNWYQQKPGKAPKLLIYDASNLETGVPSRFSGSGSGTDFTFTISSLQPEDIATYYCHQYDDLPLTFGGGTKVEIRR

How the values were obtained:
human FGFR1c = target: T1, human FGFR1c (human, UniProt P11362 22-822); experiment: flow cytometry, transfected HEK293T; mock-transfected cells 695
T1 construct: Full length (GenBank NP-075598), expressed on transfected 293T cells; also called huFGFR1c; FGFR1c alone
Procedure: (§1) This solution was then added dropwise to 10 million HEK293T cells in 10 ml of media. 24 hours following transfection, the cells were washed and 50,000 cells were stained with each primary antibody, 50 μl of unpurified hybridoma supernatant was diluted 1:2 and used for staining cells. After a one hour incubation at 4° c., the cells were washed and an anti-Human Fc-specific secondary was added. Stained cells were then analyzed on a flow cytometer.

[1] = target: T2, human FGFR1c/human β-Klotho complex (FGF21 receptor) (human, UniProt P11362 22-822); experiment: as above
T2 construct: Both full-length proteins co-expressed on cells (HEK293T, CHO, L6); also called HuFGFR1c/Hu β-Klotho; huFGF21R
Procedure: as §1

[2] = target: T3, cynomologous monkey FGFR1c/cynomologous monkey β-Klotho (co-transfected) (cynomologous monkey); experiment: as above
T3 construct: whole, on cells; also called Cyno FGFR1c/Cyno β-Klotho
Procedure: as §1

[3] = target: T2, human FGFR1c/human β-Klotho complex …; experiment: flow cytometry, transfected HEK293T; mock-transfected cells 648
Procedure: as §1

| Binder | GeoMean (human FGFR1c) | GeoMean [1] | GeoMean [2] | GeoMean [3] |
| --- | --- | --- | --- | --- |
| B1 | 780 | 16700 | 21600 |  |
| B2 |  |  |  | 17900 |
